# Results from PMC9352680, “A comprehensive thermodynamic model for RNA binding by the Saccharomyces cerevisiae Pumilio protein PUF4”.
# T1: PUF4 RNA-binding domain (Saccharomyces cerevisiae, UniProt P25339 537-888)
# T1 sequence: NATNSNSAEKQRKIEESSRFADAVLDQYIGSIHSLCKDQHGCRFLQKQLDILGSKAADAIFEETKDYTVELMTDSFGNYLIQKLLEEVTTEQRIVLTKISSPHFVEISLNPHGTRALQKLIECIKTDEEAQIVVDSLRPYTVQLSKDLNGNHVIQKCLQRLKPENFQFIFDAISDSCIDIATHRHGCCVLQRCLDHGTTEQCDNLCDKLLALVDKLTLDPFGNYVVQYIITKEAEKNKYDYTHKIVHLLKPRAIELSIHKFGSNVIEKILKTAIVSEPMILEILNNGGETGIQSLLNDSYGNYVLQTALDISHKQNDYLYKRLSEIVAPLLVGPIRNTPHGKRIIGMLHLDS
# Biological target: T1, PUF4 RNA-binding domain
# Experiment: Mg; RNA-MaP; 20 mM Na-HEPES pH 7.4, 30 mM KOAc, 0.75 mM MgCl2, 0.1% Tween-20, 5% glycerol, 0.1 mg/mL BSA, 2 mM DTT; 25 C; 0.0125-409.6 nM protein
# Conditions: tags: N-His6-TEV cleaved; C-SNAP kept, Cy3B-labelled; label: tethered on chip by stalled RNA polymerase
row,Binder,Kd
1,UCUCUUUGUAAAAUUUCUCUU (ssRNA) [Ic_S1_P4E.1_K4.1_C4.1_H4.1_A4.1_[T5A]_[T7A]_F4.1_[A9T]_T4.1],33.5 nM
2,UCUCUUUGUAUGUACUCUCUU (ssRNA) [Ic_S1_P4E.1_K4.1_C4.1_H4.1_A4.1_[A6G]_F4.1_[T8A]_[A9C]_T4.1],41.5 nM
3,UCUCUUUGUAUCCUGUCUCUU (ssRNA) [Ic_S1_P4E.1_K4.1_C4.1_H4.1_A4.1_[A6C]_[T7C]_F4.1_[A9G]_T4.1],82.6 nM
4,UCUCUUUGUAUGCAUUCUCUU (ssRNA) [Ic_S1_P4E.1_K4.1_C4.1_H4.1_A4.1_[A6G]_[T7C]_F4.1_[T8A]_[A9T]_T4.1],565 nM
5,UCUCUUUGUAUCCUUUCUCUU (ssRNA) [Ic_S1_P4E.1_K4.1_C4.1_H4.1_A4.1_[A6C]_[T7C]_F4.1_[A9T]_T4.1],44.9 nM
6,UCUCUUUGUAAAUAUUCUCUU (ssRNA) [Ic_S1_P4E.1_K4.1_C4.1_H4.1_A4.1_[T5A]_F4.1_[T8A]_[A9T]_T4.1],26.2 nM
7,UCUCUUUGUAUGUAUUCUCUU (ssRNA) [Ic_S1_P4E.1_K4.1_C4.1_H4.1_A4.1_[A6G]_F4.1_[T8A]_[A9T]_T4.1],71.2 nM
8,UCUCUUUGUAAAUCCUCUCUU (ssRNA) [Ic_S1_P4E.1_K4.1_C4.1_H4.1_A4.1_[T5A]_F4.1_[T8C]_[A9C]_T4.1],368 nM
9,UCUCUUUGUAUGCUCUCUCUU (ssRNA) [Ic_S1_P4E.1_K4.1_C4.1_H4.1_A4.1_[A6G]_[T7C]_F4.1_[A9C]_T4.1],677 nM
10,UCUCUUUGUAAAUACUCUCUU (ssRNA) [Ic_S1_P4E.1_K4.1_C4.1_H4.1_A4.1_[T5A]_F4.1_[T8A]_[A9C]_T4.1],36.7 nM
11,UCUCUUUGUAUGCCAUCUCUU (ssRNA) [Ic_S1_P4E.1_K4.1_C4.1_H4.1_A4.1_[A6G]_[T7C]_F4.1_[T8C]_T4.1],472 nM
12,UCUCUUUGUAUCCACUCUCUU (ssRNA) [Ic_S1_P4E.1_K4.1_C4.1_H4.1_A4.1_[A6C]_[T7C]_F4.1_[T8A]_[A9C]_T4.1],981 nM
13,UCUCUUUGUAUGGCUUCUCUU (ssRNA) [Ic_S1_P4E.1_K4.1_C4.1_H4.1_A4.1_[A6G]_[T7G]_F4.1_[T8C]_[A9T]_T4.1],1630 nM
14,UCUCUUUGUAUUCAUCUCUU (ssRNA) [Ib_S1_P3E.1_K3.1_C3.1_H3.1_A3.1_[A6T]_F3.1_[T7C]_T3.1],296 nM
15,UCUCUUUGUAUGGCGUCUCUU (ssRNA) [Ic_S1_P4E.1_K4.1_C4.1_H4.1_A4.1_[A6G]_[T7G]_F4.1_[T8C]_[A9G]_T4.1],> 2300 nM
16,UCUCUUUGUAUCCUCUCUCUU (ssRNA) [Ic_S1_P4E.1_K4.1_C4.1_H4.1_A4.1_[A6C]_[T7C]_F4.1_[A9C]_T4.1],67.2 nM
17,UCUCUUUGUAUCACCUCUCUU (ssRNA) [Ic_S1_P4E.1_K4.1_C4.1_H4.1_A4.1_[A6C]_[T7A]_F4.1_[T8C]_[A9C]_T4.1],432 nM
18,UCUCUUUGUAUGGCCUCUCUU (ssRNA) [Ic_S1_P4E.1_K4.1_C4.1_H4.1_A4.1_[A6G]_[T7G]_F4.1_[T8C]_[A9C]_T4.1],> 2300 nM
19,UCUCUUUGUAAAUAGUCUCUU (ssRNA) [Ic_S1_P4E.1_K4.1_C4.1_H4.1_A4.1_[T5A]_F4.1_[T8A]_[A9G]_T4.1],11.5 nM
20,UCUCUUUGUAAAAAUUCUCUU (ssRNA) [Ic_S1_P4E.1_K4.1_C4.1_H4.1_A4.1_[T5A]_[T7A]_F4.1_[T8A]_[A9T]_T4.1],373 nM
21,UCUCUUUGUAUCCGUUCUCUU (ssRNA) [Ic_S1_P4E.1_K4.1_C4.1_H4.1_A4.1_[A6C]_[T7C]_F4.1_[T8G]_[A9T]_T4.1],1300 nM
22,UCUCUUUGUAUCGACUCUCUU (ssRNA) [Ic_S1_P4E.1_K4.1_C4.1_H4.1_A4.1_[A6C]_[T7G]_F4.1_[T8A]_[A9C]_T4.1],> 2300 nM

row,Binder,Kd
1,UCUCUUUGUAAACAUCUCUU (ssRNA) [Ib_S1_P3E.1_K3.1_C3.1_H3.1_A3.1_[T5A]_F3.1_[T7C]_T3.1],424 nM
2,UCUCUUUGUAUGUAGUCUCUU (ssRNA) [Ic_S1_P4E.1_K4.1_C4.1_H4.1_A4.1_[A6G]_F4.1_[T8A]_[A9G]_T4.1],106 nM
3,UCUCUUUGUAUCCCGUCUCUU (ssRNA) [Ic_S1_P4E.1_K4.1_C4.1_H4.1_A4.1_[A6C]_[T7C]_F4.1_[T8C]_[A9G]_T4.1],> 2300 nM
4,UCUCUUUGUAAAAUGUCUCUU (ssRNA) [Ic_S1_P4E.1_K4.1_C4.1_H4.1_A4.1_[T5A]_[T7A]_F4.1_[A9G]_T4.1],27.1 nM
5,UCUCUUUGUAUGGUCUCUCUU (ssRNA) [Ic_S1_P4E.1_K4.1_C4.1_H4.1_A4.1_[A6G]_[T7G]_F4.1_[A9C]_T4.1],1260 nM
6,UCUCUUUGUAUCAACUCUCUU (ssRNA) [Ic_S1_P4E.1_K4.1_C4.1_H4.1_A4.1_[A6C]_[T7A]_F4.1_[T8A]_[A9C]_T4.1],508 nM
7,UCUCUUUGUAUCCCAUCUCUU (ssRNA) [Ic_S1_P4E.1_K4.1_C4.1_H4.1_A4.1_[A6C]_[T7C]_F4.1_[T8C]_T4.1],709 nM
8,UCUCUUUGUAUCAAUUCUCUU (ssRNA) [Ic_S1_P4E.1_K4.1_C4.1_H4.1_A4.1_[A6C]_[T7A]_F4.1_[T8A]_[A9T]_T4.1],91.5 nM
9,UCUCUUUGUAUGGUUUCUCUU (ssRNA) [Ic_S1_P4E.1_K4.1_C4.1_H4.1_A4.1_[A6G]_[T7G]_F4.1_[A9T]_T4.1],542 nM
10,UCUCUUUGUAUGCUUUCUCUU (ssRNA) [Ic_S1_P4E.1_K4.1_C4.1_H4.1_A4.1_[A6G]_[T7C]_F4.1_[A9T]_T4.1],96.1 nM
11,UCUCUUUGUAUGUCCUCUCUU (ssRNA) [Ic_S1_P4E.1_K4.1_C4.1_H4.1_A4.1_[A6G]_F4.1_[T8C]_[A9C]_T4.1],564 nM
12,UCUCUUUGUAUGCAAUCUCUU (ssRNA) [Ic_S1_P4E.1_K4.1_C4.1_H4.1_A4.1_[A6G]_[T7C]_F4.1_[T8A]_T4.1],516 nM
13,UCUCUUUGUAUCGGCUCUCUU (ssRNA) [Ic_S1_P4E.1_K4.1_C4.1_H4.1_A4.1_[A6C]_[T7G]_F4.1_[T8G]_[A9C]_T4.1],2020 nM
14,UCUCUUUGUAUCGAUCUCUU (ssRNA) [Ib_S1_P3E.1_K3.1_C3.1_H3.1_A3.1_[A6C]_F3.1_[T7G]_T3.1],1020 nM
15,UCUCUUUGUAUCCAGUCUCUU (ssRNA) [Ic_S1_P4E.1_K4.1_C4.1_H4.1_A4.1_[A6C]_[T7C]_F4.1_[T8A]_[A9G]_T4.1],2020 nM
16,UCUCUUUGUAUGCUGUCUCUU (ssRNA) [Ic_S1_P4E.1_K4.1_C4.1_H4.1_A4.1_[A6G]_[T7C]_F4.1_[A9G]_T4.1],685 nM
17,UCUCUUUGUAUGUGGUCUCUU (ssRNA) [Ic_S1_P4E.1_K4.1_C4.1_H4.1_A4.1_[A6G]_F4.1_[T8G]_[A9G]_T4.1],1000 nM
18,UCUCUUUGUAUGCGCUCUCUU (ssRNA) [Ic_S1_P4E.1_K4.1_C4.1_H4.1_A4.1_[A6G]_[T7C]_F4.1_[T8G]_[A9C]_T4.1],> 2300 nM
19,UCUCUUUGUAUCCAUUCUCUU (ssRNA) [Ic_S1_P4E.1_K4.1_C4.1_H4.1_A4.1_[A6C]_[T7C]_F4.1_[T8A]_[A9T]_T4.1],362 nM
20,UCUCUUUGUAAAAUCUCUCUU (ssRNA) [Ic_S1_P4E.1_K4.1_C4.1_H4.1_A4.1_[T5A]_[T7A]_F4.1_[A9C]_T4.1],54.4 nM
21,UCUCUUUGUAUGCGUUCUCUU (ssRNA) [Ic_S1_P4E.1_K4.1_C4.1_H4.1_A4.1_[A6G]_[T7C]_F4.1_[T8G]_[A9T]_T4.1],1210 nM
22,UCUCUUUGUAUCGGUUCUCUU (ssRNA) [Ic_S1_P4E.1_K4.1_C4.1_H4.1_A4.1_[A6C]_[T7G]_F4.1_[T8G]_[A9T]_T4.1],938 nM

row,Binder,Kd
1,UCUCUUUGUAUGAUGUCUCUU (ssRNA) [Ic_S1_P4E.1_K4.1_C4.1_H4.1_A4.1_[A6G]_[T7A]_F4.1_[A9G]_T4.1],56.7 nM
2,UCUCUUUGUAUGCAUCUCUU (ssRNA) [Ic_S1_P3E.1_K3.1_C3.1_H3.1_A3.1_[A6G]_F3.1_[T7C]_T3.1],1280 nM
3,UCUCUUUGUAUCACAUCUCUU (ssRNA) [Ic_S1_P4E.1_K4.1_C4.1_H4.1_A4.1_[A6C]_[T7A]_F4.1_[T8C]_T4.1],74.8 nM
4,UCUCUUUGUAAAUGCUCUCUU (ssRNA) [Ic_S1_P4E.1_K4.1_C4.1_H4.1_A4.1_[T5A]_F4.1_[T8G]_[A9C]_T4.1],377 nM
5,UCUCUUUGUAUCAGCUCUCUU (ssRNA) [Ic_S1_P4E.1_K4.1_C4.1_H4.1_A4.1_[A6C]_[T7A]_F4.1_[T8G]_[A9C]_T4.1],606 nM
6,UCUCUUUGUAUCGAUUCUCUU (ssRNA) [Ic_S1_P4E.1_K4.1_C4.1_H4.1_A4.1_[A6C]_[T7G]_F4.1_[T8A]_[A9T]_T4.1],581 nM
7,UCUCUUUGUAUCGUUUCUCUU (ssRNA) [Ic_S1_P4E.1_K4.1_C4.1_H4.1_A4.1_[A6C]_[T7G]_F4.1_[A9T]_T4.1],328 nM
8,UCUCUUUGUAUUUAUCUCUU (ssRNA) [Ia_S1_P3E.1_K3.1_C3.1_H3.1_A3.1_[A6T]_F3.1_T3.1],36.2 nM
9,UCUCUUUGUAUCGCUUCUCUU (ssRNA) [Ic_S1_P4E.1_K4.1_C4.1_H4.1_A4.1_[A6C]_[T7G]_F4.1_[T8C]_[A9T]_T4.1],682 nM
10,UCUCUUUGUAUCCCCUCUCUU (ssRNA) [Ic_S1_P4E.1_K4.1_C4.1_H4.1_A4.1_[A6C]_[T7C]_F4.1_[T8C]_[A9C]_T4.1],1020 nM
11,UCUCUUUGUACAAAUCUCUU (ssRNA) [Ic_S1_P3E.1_K3.1_C3.1_H3.1_A3.1_[T5C]_F3.1_[T7A]_T3.1],100 nM
12,UCUCUUUGUAAAAAUCUCUU (ssRNA) [Ic_S1_P3E.1_K3.1_C3.1_H3.1_A3.1_[T5A]_F3.1_[T7A]_T3.1],367 nM
13,UCUCUUUGUAUCAUGUCUCUU (ssRNA) [Ic_S1_P4E.1_K4.1_C4.1_H4.1_A4.1_[A6C]_[T7A]_F4.1_[A9G]_T4.1],8.82 nM
14,UCUCUUUGUAUCCAAUCUCUU (ssRNA) [Ic_S1_P4E.1_K4.1_C4.1_H4.1_A4.1_[A6C]_[T7C]_F4.1_[T8A]_T4.1],1050 nM
15,UCUCUUUGUAUGCAGUCUCUU (ssRNA) [Ic_S1_P4E.1_K4.1_C4.1_H4.1_A4.1_[A6G]_[T7C]_F4.1_[T8A]_[A9G]_T4.1],> 2300 nM
16,UCUCUUUGUAUGUGUUCUCUU (ssRNA) [Ic_S1_P4E.1_K4.1_C4.1_H4.1_A4.1_[A6G]_F4.1_[T8G]_[A9T]_T4.1],92.5 nM
17,UCUCUUUGUAUCAUCUCUCUU (ssRNA) [Ic_S1_P4E.1_K4.1_C4.1_H4.1_A4.1_[A6C]_[T7A]_F4.1_[A9C]_T4.1],17.6 nM
18,UCUCUUUGUAUCAGUUCUCUU (ssRNA) [Ic_S1_P4E.1_K4.1_C4.1_H4.1_A4.1_[A6C]_[T7A]_F4.1_[T8G]_[A9T]_T4.1],316 nM
19,UCUCUUUGUAUGAUCUCUCUU (ssRNA) [Ic_S1_P4E.1_K4.1_C4.1_H4.1_A4.1_[A6G]_[T7A]_F4.1_[A9C]_T4.1],148 nM
20,UCUCUUUGUAUGACUUCUCUU (ssRNA) [Ic_S1_P4E.1_K4.1_C4.1_H4.1_A4.1_[A6G]_[T7A]_F4.1_[T8C]_[A9T]_T4.1],804 nM
21,UCUCUUUGUAUCGUGUCUCUU (ssRNA) [Ic_S1_P4E.1_K4.1_C4.1_H4.1_A4.1_[A6C]_[T7G]_F4.1_[A9G]_T4.1],432 nM
